Results taken from patent publication CN109810195A (INST OF HEMATOLOGY BLOOD DISEASES HOSPITAL OF CHINESE …, dated 2019).

Molecular target: T1, 人CD123蛋白 (白细胞介素3受体α链, IL3RA) (human, UniProt P26951 19-378)
T1 construct: whole, on cells
Assay: FACS, PE-labelled 13C3 titrated (200nM to 0.003nM) on 3T3 cells transfected with CD123; Kd fitted in GraphPad Prism 5

T1 sequence (P26951 19-378): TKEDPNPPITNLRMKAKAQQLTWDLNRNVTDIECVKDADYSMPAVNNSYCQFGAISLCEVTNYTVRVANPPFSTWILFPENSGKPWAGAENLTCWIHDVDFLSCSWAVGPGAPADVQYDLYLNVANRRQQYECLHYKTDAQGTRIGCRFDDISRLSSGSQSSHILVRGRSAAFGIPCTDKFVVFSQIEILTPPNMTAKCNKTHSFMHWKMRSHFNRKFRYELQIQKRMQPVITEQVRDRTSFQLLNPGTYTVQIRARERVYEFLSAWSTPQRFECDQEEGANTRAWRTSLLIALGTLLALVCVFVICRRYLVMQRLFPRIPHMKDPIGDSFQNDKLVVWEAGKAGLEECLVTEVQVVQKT

Kd: 3.67 nM
B1: 鼠抗人CD123单克隆抗体13C3 (antibody, V domains shown)
VH: QVQLQESGPGILQPSQTLTLTCSFSGFSLSTSGMGVGWIRQPSGKGLEWLAHIWWDDDKRYKPALKSRLTISKDTSSNQVFLKIASVDTADAATYYCARMGGGNYLFLYAMDFWGQGTSVTVSA
VL: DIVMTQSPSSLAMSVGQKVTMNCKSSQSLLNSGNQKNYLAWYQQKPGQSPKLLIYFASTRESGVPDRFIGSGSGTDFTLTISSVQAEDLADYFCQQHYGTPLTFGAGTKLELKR
notes: PE-labelled purified antibody in the Kd assay and on patient samples; also called 抗CD123单克隆抗体13C3; 杂交瘤细胞株13C3 (CGMCC No.16699) 产生的抗体
